Paper PMC12507091, “The CsWRKY50-CsREM1-CsTSⅠ module inhibits theanine biosynthesis in tea plants under drought stress”

T1: CsREM1-GST (Camellia sinensis)
T1 chain: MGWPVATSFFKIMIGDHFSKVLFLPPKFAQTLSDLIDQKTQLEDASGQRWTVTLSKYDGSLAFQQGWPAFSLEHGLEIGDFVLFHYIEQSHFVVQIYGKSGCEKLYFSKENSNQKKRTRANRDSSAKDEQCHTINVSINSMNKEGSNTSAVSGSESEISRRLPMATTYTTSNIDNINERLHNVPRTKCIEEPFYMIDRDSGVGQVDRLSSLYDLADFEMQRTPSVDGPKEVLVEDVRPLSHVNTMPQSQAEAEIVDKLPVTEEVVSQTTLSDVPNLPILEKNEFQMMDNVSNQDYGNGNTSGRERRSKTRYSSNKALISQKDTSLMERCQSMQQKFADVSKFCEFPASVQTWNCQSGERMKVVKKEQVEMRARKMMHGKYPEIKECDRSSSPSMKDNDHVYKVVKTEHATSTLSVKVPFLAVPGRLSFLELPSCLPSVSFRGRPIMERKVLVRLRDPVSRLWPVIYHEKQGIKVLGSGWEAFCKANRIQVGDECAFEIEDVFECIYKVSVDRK

B1: CsTSI promoter Probe-2 (dsDNA)
DNA 1: TTACAACATGCTACACAGACTCGTAAA
DNA 2: TTTACGAGTCTGTGTAGCATGTTGTAA
B2: CsTSI promoter Probe-1 (dsDNA)
DNA 1: TATGTAATTTTATGTAGAGTTATACAT
DNA 2: ATGTATAACTCTACATAAAATTACATA
B3: CsREM1 promoter Probe (dsDNA)
DNA 1: TTTTGTCTATGTTTTGACTTACTAATAATT
DNA 2: AATTATTAGTAAGTCAAAACATAGACAAAA

What was measured:
[1] = biological target: T1, CsREM1-GST; experiment: EMSA; not stated (EMSA protocol per Zhu et al. 2024); conditions: protein: recombinant; tags: GST (pGEX-4T, N-terminal by vector); blunt
[2] = biological target: CsWRKY50-GST (Camellia sinensis); experiment: as above; conditions: protein: recombinant; tags: GST (pGEX-4T, N-terminal by vector); blunt
Chain of CsWRKY50-GST (Camellia sinensis) (chain, as listed by the source): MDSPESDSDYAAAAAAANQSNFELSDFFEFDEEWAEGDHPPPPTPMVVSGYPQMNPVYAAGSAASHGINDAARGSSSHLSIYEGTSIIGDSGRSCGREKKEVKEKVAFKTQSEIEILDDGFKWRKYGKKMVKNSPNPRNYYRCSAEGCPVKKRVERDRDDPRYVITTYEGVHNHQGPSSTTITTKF

| Binder | binding result [1] | binding result [2] |
| --- | --- | --- |
| B1 | binds |  |
| B2 | binds |  |
| B3 |  | binds |
